Our source for the stoichiometry N and relative binding (% of the day 0 response) after 7 days values is paper PMC4972253.

The target of assay [1] is JRFL NFL trimer (Wt, unfixed) (HIV-1, subtype B, strain JRFL). In words: native gel or EMSA. (A gel shift assay detects complexes by their altered migration in electrophoresis.)
The target of another assay is VRC01 (human). In words: BLI. (In general: In BLI a coated tip is dipped into the sample, and binding shifts an interference pattern.)
For assay [2], the target named is BG505 NFL trimer (Wt, unfixed) (HIV-1, subtype A, strain BG505). Kind of assay: native gel or EMSA.

The stoichiometry N is a count of units in the complex or per binding partner.

Chain of VRC01 (human) (light, as listed by the source, chain 2 of 2, other chains not shown): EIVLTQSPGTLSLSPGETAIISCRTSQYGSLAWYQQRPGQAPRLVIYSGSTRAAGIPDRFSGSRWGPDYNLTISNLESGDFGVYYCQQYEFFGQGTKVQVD

For the substance “JRFL NFL trimer (Wt, unfixed) (domain or fragment)”, the stoichiometry N in assay [1] was found to be 3.

As to “BG505 NFL trimer (Wt, unfixed) (domain or fragment)”, the relative binding (% of the day 0 response) after 7 days at 37°C in PBS with VRC01 (human) came to 90%. The stoichiometry N in assay [2] came to 3.
